Where two headings read alike, the source gives them in different places. Numbered stars: 1 amine (or outer) side, 2 acyl side, 3 side chain; on linkers, the order of the positions; unused ones are H or OH. Bridge positions count the residues as written; N and C are the ends. Square brackets hold non-standard residues; d marks the D form. Ends that are not written are not given here. dTiq = D-1,2,3,4-tetrahydroisoquinoline-1-carboxylic acid, O=C([C@H]1c2ccccc2CCN1[*:1])[*:2]; Bip = N[C@@H](Cc1ccc(-c2ccccc2)cc1)C(=O)O; Dip = N[C@H](C(=O)O)C(c1ccccc1)c1ccccc1; Phe(4-I) = N[C@@H](Cc1ccc(I)cc1)C(=O)O; 1Nal = N[C@@H](Cc1cccc2ccccc12)C(=O)O; d1Nal = N[C@H](Cc1cccc2ccccc12)C(=O)O; Tiq1c(1S) = O=C(O)[C@H]1NCCc2ccccc21; Tic = O=C(O)[C@@H]1Cc2ccccc2CN1; dTic = O=C(O)[C@H]1Cc2ccccc2CN1; Cha = N[C@@H](CC1CCCCC1)C(=O)O; dPhg = N[C@@H](C(=O)O)c1ccccc1; dTle = CC(C)(C)[C@@H](N)C(=O)O; Phg = N[C@H](C(=O)O)c1ccccc1; dAia = not defined here
T1: human urotensin II receptor (UT) (human, UniProt Q9UKP6 1-389)
T1 construct: whole, on cells; also called hUT; hGPR14
T1 sequence (looked up): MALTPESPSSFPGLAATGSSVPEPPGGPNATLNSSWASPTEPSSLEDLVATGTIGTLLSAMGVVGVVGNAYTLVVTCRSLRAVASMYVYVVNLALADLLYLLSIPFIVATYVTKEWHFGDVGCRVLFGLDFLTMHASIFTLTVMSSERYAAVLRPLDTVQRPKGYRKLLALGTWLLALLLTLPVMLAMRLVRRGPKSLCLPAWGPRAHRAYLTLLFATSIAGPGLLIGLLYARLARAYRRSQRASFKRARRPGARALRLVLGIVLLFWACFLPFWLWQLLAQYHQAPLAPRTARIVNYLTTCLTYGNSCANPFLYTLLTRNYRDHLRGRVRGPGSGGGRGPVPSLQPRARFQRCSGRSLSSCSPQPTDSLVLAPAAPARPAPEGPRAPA

T2: UT receptor present in rat aortic ring (rat, UniProt P49684 1-386)
T2 sequence (looked up): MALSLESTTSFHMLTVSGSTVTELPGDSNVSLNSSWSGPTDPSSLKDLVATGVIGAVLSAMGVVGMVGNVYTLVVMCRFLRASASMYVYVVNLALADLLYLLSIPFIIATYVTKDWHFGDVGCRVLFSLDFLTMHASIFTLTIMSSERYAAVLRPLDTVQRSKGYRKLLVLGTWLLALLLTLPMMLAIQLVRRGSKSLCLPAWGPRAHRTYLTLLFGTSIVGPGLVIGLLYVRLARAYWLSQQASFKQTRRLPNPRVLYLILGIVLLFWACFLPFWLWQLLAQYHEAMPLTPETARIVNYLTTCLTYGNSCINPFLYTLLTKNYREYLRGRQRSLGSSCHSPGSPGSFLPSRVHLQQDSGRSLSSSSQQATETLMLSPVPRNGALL


Columns and labels:
[1] = target: T1, human urotensin II receptor (UT); test: displacement of 0.2 nM 125I-hUII from CHO cells expressing human UT
[2] = target: T2, UT receptor present in rat aortic ring; test: cell-based or functional assay
[3] = target: T1, human urotensin II receptor (UT); test: displacement of 0.2 nM 125I-hUII from CHO cells expressing human UT; remark: listed apart in the source
[4] = target: T1, human urotensin II receptor (UT); test: as above; remark: listed apart in the source
Method: Cell Culture and Binding Experiments: Transfected CHO cells expressing the human urotensin receptor (CHO-UT) were maintained in Ham-F12 medium with 10% fetal bovine serum (FBS), 2 mM L-glutamine, 100 Ul/mL each of penicillin and streptomycin, and 400 μg/mL G418. […] Binding assays were following known literature procedures using CHO cells stably transfected with hGPR14. […] After 90 min of incubation at room temperature, cells were washed, lysed, and the cell-bound radioactivity was quantified using a γ-counter. […] The cells were then washed, lysed, and the radioactivity counted on a γ-counter (1470 Automatic Gamma Counter, Perkin Elmer).

[5] = target: T2, UT receptor present in rat aortic ring; test: cell-based or functional assay; remark: listed apart in the source
[6] = target: T1, human urotensin II receptor (UT); test: dissociation from living CHO-UT cells started with 10^-6 M URP alone
Method: (§1) Binding assays were following known literature procedures using CHO cells stably transfected with hGPR14. […] After 90 min of incubation at room temperature, cells were washed, lysed, and the cell-bound radioactivity was quantified using a γ-counter. […] The cells were then washed, lysed, and the radioactivity counted on a γ-counter (1470 Automatic Gamma Counter, Perkin Elmer).

[7] = target: T1, human urotensin II receptor (UT); test: dissociation from living CHO-UT cells started with 10^-6 M URP + 10^-6 M urocontrin ([Bip^4]URP)
Method: as §1

[8] = target: T2, UT receptor present in rat aortic ring; test: cell-based or functional assay; remark: listed apart in the source

Aortic Ring contraction Emax (%) [2]	pEC50 [3]	IC50 [4]	Molecule	also measured
–	–	–	[Tbg^4]URP (peptide)	pEC50 [1]: < 5
128 % of KCl (40 mM) contraction	–	–	ACF[dTic]KYCV (disulfide 2-7) [[D-Tic^4]URP]	–
148 % of KCl (40 mM) contraction	7.22	60 nM	ACF[dAia]KYCV (disulfide 2-7; not fully specified (bridges); reading uncertain; also: D-Aia indole ring bonded to Lys5 backbone N, also called compound 13) [[D-Aia^4]URP]	–
116 % of KCl (40 mM) contraction	7.56	29 nM	H-ACF[dPhg]KYCV-OH (disulfide 2-7, also called compound 15) [[D-Phg^4]URP]	–
117 % of KCl (40 mM) contraction	–	–	H-ETPDCFWKYCV-OH (disulfide 5-10) [human urotensin II (hUII)]	Aortic Ring contraction EC50 [2]: 1 nM; Aortic Ring contraction pEC50 [2]: 9.08; hUII pEC50, rat isolated aorta pre-treated with 0.3 µM [Bip^4]URP [5]: 8.31; hUII pEC50, rat isolated aorta pre-treated with 1 µM [Bip^4]URP [5]: 7.6; hUII pEC50, rat isolated aorta pre-treated with 3 µM [Bip^4]URP [5]: 7.55; hUII pEC50, rat isolated aorta, vehicle [5]: 8.98
–	–	–	H-ACFWKYCV-OH (disulfide 2-7; also: 125I-labelled, site not given here, used at 0.2 nM; also called radiolabeled URP) [^125I-URP]	half-life (t1/2) [6]: 13.1 min; half-life (t1/2) [7]: 12.1 min
–	< 5	–	AXFXKYCV (position 2 is beta,beta-dimethyl-cysteine (Pen); position 4 is Tiq; cyclic (Pen2-Cys7 disulfide), H-Ala-Pen-Phe-Tiq-Lys-Tyr-Cys-Val-OH; also called compound 20) [[Pen^2, Tiq^4]URP]	–
102 % of KCl (40 mM) contraction	7.53	29 nM	H-ACF[Phg]KYCV-OH (disulfide 2-7, H-Ala-Cys-Phe-Phg-Lys-Tyr-Cys-Val-OH; also called compound 14) [[Phg^4]URP]	–
100 % of KCl (40 mM) contraction	–	–	H-ACFWKYCV-OH (disulfide 2-7; SMILES CC(C)[C@H](NC(=O)[C@@H]1CSSC[C@H](NC(=O)[C@H](C)N)C(=O)N[C@@H](Cc2ccccc2)C(=O)N[C@@H](Cc2c[nH]c3ccccc23)C(=O)N[C@@H](CCCCN)C(=O)N[C@@H](Cc2ccc(O)cc2)C(=O)N1)C(=O)O) [urotensin II-related peptide (URP)]	URP pEC50, rat aortic ring pre-treated with 10^-6 M [Bip^4]URP [8]: 7.74; Aortic Ring contraction EC50 [2]: 7 nM; Aortic Ring contraction pEC50 [2]: 8.09
86 % of KCl (40 mM) contraction	7.77	17 nM	H-ACF[1Nal]KYCV-OH (disulfide 2-7, H-Ala-Cys-Phe-Nal-Lys-Tyr-Cys-Val-OH; also called compound 3) [[1-Nal^4]URP]	–
–	7.33	46 nM	ACF[d1Nal]KYCV (disulfide 2-7, also called compound 4; [D-Nal^4]URP) [[D-1-Nal^4]URP]	Aortic Ring contraction Emax (%), maximum efficacy at 10^-5.5 M [2]: 34 % of KCl (40 mM) contraction
–	7.24	58 nM	H-ACF[Phe(4-I)]KYCV-OH (disulfide 2-7, H-Ala-Cys-Phe-Phe(I)-Lys-Tyr-Cys-Val-OH; also called compound 5; [para-iodo-Phe^4]URP) [[Phe(I)^4]URP]	Aortic Ring contraction Emax (%), maximum efficacy at 10^-5.5 M [2]: 92 % of KCl (40 mM) contraction
126 % of KCl (40 mM) contraction	–	10 nM	H-ACF[Tiq1c(1S)]KYCV-OH (disulfide 2-7, H-Ala-Cys-Phe-Tiq-Lys-Tyr-Cys-Val-OH; also called compound 16) [[Tiq^4]URP]	–
99 % of KCl (40 mM) contraction	–	> 1000 nM	ACF[dTle]KYCV-OH (disulfide 2-7, also called compound 8) [[D-Tbg^4]URP]	–
–	–	–	H-ACF[Bip]KYCV-OH (disulfide 2-7) [[Bip^4]URP]	pIC50, reversal of contractile tone established in rat isolated aorta with 4 nM hUII [8]: 7.72
–	–	–	H-ACF[Dip]KYCV-OH (disulfide 2-7) [[Dip^4]URP]	Aortic Ring contraction Emax (%), maximum efficacy at 10^-5.5 M [2]: 23 % of KCl (40 mM) contraction
–	–	–	H-ACF[Cha]KYCV-OH (disulfide 2-7) [[Cha^4]URP]	Aortic Ring contraction Emax (%), maximum efficacy at 10^-5.5 M [2]: 77 % of KCl (40 mM) contraction
113 % of KCl (40 mM) contraction	7.68	21 nM	ACF[dTiq]KYCV (disulfide 2-7, also called compound 17) [[D-Tiq^4]URP]	–
–	–	–	ACF[Tic]KYCV-OH (disulfide 2-7) [[Tic^4]URP]	pEC50 [1]: < 5; Aortic Ring contraction Emax (%), maximum efficacy at 10^-5.5 M [2]: 43 % of KCl (40 mM) contraction

— patent US20140113872A1 (INSTITUT NATIONAL DE LA RECHERCHE SCIENTIFIQUE, published 2014)
